Source: patent US20060134122A1, “Peptides of syndecan-1 for inhibition of cancer” (priority 2004, published 2006)

Assays:
[1] = test system: MDA-MB-231 human mammary carcinoma cells; conditions: no integrin ligand; Beauvais and Rapraeger, 2003; cited from earlier work
[2] = test system: MCF-7 human carcinoma cells; assay: Cell spreading assay, MCF-7; assay type: cell-based; conditions: 10 μg/mL VN, 2 h; LM609 30 μg/mL; mAb 13 25 μg/mL; GST-mS1ED 20 μM
Description: FIG. 3—MDA-MB-435, but not MCF-7, human carcinoma cells display functional coupling of Sdc-1 and αvβ3 integrins on VN. Depicted are phalloidin-stained cells 2 h after plating on wells coated with 10 μg/mL VN (upper half) or FN (lower half) in plating medium alone or medium containing either 30 μg/mL mAb LM609, 25 μg/mL mAb 13, 20 μM GST-mS1ED or -mS4ED. Bar, 50 μm.
MDA-MB-435, but not MCF-7, human carcinoma cells display functional coupling of Sdc-1 and αvβ3 integrin on VN. To test whether activation of αvβ3 integrin activation on matrix is also functionally coupled to Sdc-1, MDA-MB-435 and MCF-7 cells were plated on either VN or FN (FIG. 3). MDA-MB-435 cells spread on VN and require αvβ3 integrins for this activity as spreading is blocked by mAb LM609. Although the MCF-7 cells spread on VN, this spreading is unaffected by LM609; these cells rely instead on αvβ1 integrins as spreading is blocked by either mAb 13 (FIG. 3) or αv-specific mAb M9 (unpublished data; de Vries et al., 1986). Neither cell type utilizes αvβ3 to respond to FN, rather both utilize […] that are blocked by either mAb 13 (FIG. 3) or mAb 16 (unpublished data).
To test whether GST-mS1ED specifically blocks αvβ3 integrin-dependent spreading or acts as a general inhibitor to all αv integrin heterodimers, MDA-MB-435 and MCF-7 cells were plated on VN in the presence of 20 μM GST-mS1ED. […]

B1: GST-mS1ED: recombinant mouse syndecan-1 ectodomain expressed as a fusion protein with GST (protein)
chain: QIVAVNVPPEDQDGSGDDSDNFSGSGTGALPDTLSRQTPSTWKDVWLLTATPTAPEPTSSNTETAFTSVLPAGEKPEEGEPVLHVEAEPGFTARDKEKEVTTRPRETVQLPITQRASTVRVTTAQAAVTSHPHGGMQPGLHETSAPTAPGQPDHQPPRVEGGGTSVIKEVVEDGTANQLPAGEGSGEQDFTFETSGENTAVAAVEPGLRNQPPVDEGATGASQSLLDRKEVLG
modifications: left off: a dimerising Fc or GST
notes: recombinant mouse syndecan-1 ectodomain expressed as a fusion protein with GST
collaboration between Sdc-1 and αvβ3 integrins in cells adherent to Sdc-1-specific antibody [1]: disrupted | cell spreading on VN [2]: Only the MDA-MB-435 cells fail to spread
